Assay results from patent US20230357354A1, “CD38-BINDING CD31 PEPTIDES AND USES THEREOF” (ENCEFA, priority 2020, published 2023).

Tests used:
[1] = molecular target: human CD38 on cells (Daudi cells; CD38^+ Jurkat T cells) (human), P28907; assay: cell-based or functional assay
[2] = molecular target: recombinant human CD38 (Acrobio, ref CD8-H5224) (human), P28907; assay: SPR, Biacore 3000, CM5 chip, recombinant human CD38

- EC50, glucose uptake (2-NBDG fluorescence), human Daudi cells [1]: 0.002 nM
- Kd [2]: 8.8 nM
Binder: CMVKLKREKNPGDQNFVILEFC (modifications not checked) [β-sheet-like folded peptide … (SEQ ID NO: 10), free peptide]
